Measured values taken from patent US20230340137A1, “METHODS, THERAPIES AND USES FOR TREATING CANCER” (PFIZER INC., priority 2020, published 2023).

Legend:
[1] = system: adult patients with advanced multiple myeloma; assay: Phase 1 clinical study NCT03269136, safety (DLT, CRS); format: in vivo
Source text: This Example illustrates an ongoing Phase 1 open-label, multicenter clinical study of PF-06863135 (BCMA×CD3 bispecific) as monotherapy and in combination with sasanlimab, lenalidomide or pomalidomide, in adult patients with advanced multiple myeloma who have relapsed from or are refractory to standard therapy. The study has been registered on ClinicalTrials.gov with identifier NCT03269136 and was first posted August 2017. Study results for Part 1 of the trial and additional arms for the study are described in this Example.
Part 1 of the Study is the […] single agent dose escalation arm at the dose levels of 0.1, 0.3, 1, 3, 10, 30, and 50 μg/kg Q1W by intravenous (IV) administration, and at the dose levels of 80, 130, 215, 360, 600 and 1000 μg/kg Q1W by subcutaneous (SC) administration. Upon reaching maximum tolerated dose (MTD)/maximum administered dose (MAD), patients can be treated at a dose level selected from the foregoing dose levels described in this paragraph, and below the MTD/MAD fora Q2W administration, both IV and SC, to further support the recommended phase 2 dose (RP2D) decision. For the study, dose limiting toxicity observation period is set at 21 days for Q1W dosing and 28 days for Q2W dosing. The treatment cycle, aka cycle, for Q1W dosing would be 3 weeks, and for Q2W dosing would be four weeks.
Clinical Outcome of Part 1 of the Study. As of 15 Apr. 2020, a total of 23 patients were enrolled in Part 1 of the study and had been treated with PF-06863135 administered intravenously (IV) at 0.1 (N=2), 0.3 (N=3), 1 (N=2), 3 (N=3), 10 (N=2), 30 (N=5), and 50 (N=6) μg/kg. As of Aug. 21, 2020, a total of 30 patients were enrolled in Part 1 of the study and had been treated with PF-06863135 administered subcutaneously (SC) at 80 (N=6), 130 (N=4), 215 (N=4), 360 (N=4), 600 (N=6) and 1000 (N=6) μg/kg. Safety and efficacy data were available for in 23 IV and 30 SC treated patients per IMWG (International Myeloma Working Group) criteria.
Part 1.1 of the Study is an alternative maintenance dose escalation arm for single agent PF-06863135. If excessive toxicity occurs or the maximum tolerated dose (MTD)/maximum administered dose (MAD) is reached at a dose level that is earlier than desired in Part 1 of the study described above, a priming dose will be administered one week prior to the day 1 cycle 1 administration of the dose (maintenance dose) at this dose level and for all subsequent dose levels in the dose escalation that may be initiated for Part 1.1. The priming dosing will be at a lower dose level than the maintenance dose.
Clinical outcome of Part 1.1 of the Study. As of Feb. 4, 2021, a total of 20 patients were enrolled and treatment in Part 1.1 of the Study, with cohort of 7 patients at a 600 μg/kg priming dose followed by 1000 μg/kg Q1W dosing, and a cohort of 13 patients at a 600 μg/kg priming dose followed by 1000 μg/kg Q2W dosing. The CRS in these two cohorts is described in Table 13. Introducing of priming dose decreased medium duration of CRS by 50%, from 4 days to 2 days. The dose frequency in part 1.1 of the study (Q1W v. Q2W) had no impact on the CRS. Patient response of Part 1.1 of the Study is described in Table 14.

Raji-luc lymphoma cells = assay: BCMAxCD3 mediated cell killing with human T cells, with or without GSI (luciferase viability); format: cell-based; settings: with or without 1 μM GSI, 60 hours
Experimental: CD3^+ T cells from PBMCs (Stem Cell Technologies) were negatively selected using EasySep Human T cell enrichment kit (Stem Cell Technologies). 10,000 target lymphoma cells expressing luciferase (Raji-luc) were treated with 1 μM GSI. After 24 hours, cells were seeded with 50,000 CD3^+ pan T cells in a clear 96-well V-bottom plate. Cells were further treated with a range of BCMAxCD3 bispecific concentrations with or without 1 μM GSI. 60 hours after treatment, luciferase activity in treated cells was analyzed using NeoLite reagent kit (Perkin Elmer) and acquired on VictorX multimode plate reader (Perkin Elmer). Cell viability was calculated by dividing luciferase activity of treated cells over luciferase activity of untreated control (no BCMAxCD3 bispecific antibody added).

[2] = 600 μg/kg priming, 1000 μg/kg Q1W or Q2W SC, N = 20
[3] = all SC treated patients (Part 1)

Substance: PF-06863135: heterodimeric humanized full-length bispecific antibody, one BCMA binding arm and one CD3 binding arm, modified human IgG2Δa Fc
- Patients with CRS (number) ([1]; 10 μg/kg IV cohort): 1
- patients with CRS (percent) ([1]; 10 μg/kg IV cohort): 50.0%
- Patients with CRS (number) ([1]; 30 μg/kg IV cohort): 4
- patients with CRS (percent) ([1]; 30 μg/kg IV cohort): 80.0%
- patients with dose limiting toxicities (DLTs) ([1]; 30 μg/kg IV cohort): 1 patient
- patients in whom CRS also occurred after second, third or fourth dose ([1]; 50 μg/kg IV): 3 patients
- Patients with CRS (number) ([1]; 50 μg/kg IV cohort): 6
- patients with CRS (percent) ([1]; 50 μg/kg IV cohort): 100.0%
- patients with dose limiting toxicities (DLTs) ([1]; 50 μg/kg IV cohort): 1 patient
- CRS Grade 1 (number of patients) ([1]; 80 μg/kg Q1W SC, N = 6): 2
- CRS Grade 2 (number of patients) ([1]; 80 μg/kg Q1W SC, N = 6): 1
- CRS Mean duration ([1]; 80 μg/kg Q1W SC, N = 6): 1 days
- Patients with CRS (number) ([1]; 80 μg/kg Q1W SC, N = 6): 3
- CRS Grade 1 (number of patients) ([1]; 130 μg/kg Q1W SC, N = 4): 2
- CRS Grade 2 (number of patients) ([1]; 130 μg/kg Q1W SC, N = 4): 0
- CRS Mean duration ([1]; 130 μg/kg Q1W SC, N = 4): 3 days
- Patients with CRS (number) ([1]; 130 μg/kg Q1W SC, N = 4): 2
- CRS Grade 1 (number of patients) ([1]; 215 μg/kg Q1W SC, N = 4): 3
- CRS Grade 2 (number of patients) ([1]; 215 μg/kg Q1W SC, N = 4): 0
- CRS Mean duration ([1]; 215 μg/kg Q1W SC, N = 4): 3 days
- Patients with CRS (number) ([1]; 215 μg/kg Q1W SC, N = 4): 3
- CRS Grade 1 (number of patients) ([1]; 360 μg/kg Q1W SC, N = 4): 2
- CRS Grade 2 (number of patients) ([1]; 360 μg/kg Q1W SC, N = 4): 1
- CRS Mean duration ([1]; 360 μg/kg Q1W SC, N = 4): 1.7 days
- Patients with CRS (number) ([1]; 360 μg/kg Q1W SC, N = 4): 3
- CRS Grade 1 (number of patients) ([1]; 600 μg/kg Q1W SC, N = 6): 4
- CRS Grade 2 (number of patients) ([1]; 600 μg/kg Q1W SC, N = 6): 2
- CRS Mean duration ([1]; 600 μg/kg Q1W SC, N = 6): 1.7 days
- Patients with CRS (number) ([1]; 600 μg/kg Q1W SC, N = 6): 6
- decrease of duration of CRS by introducing priming dose ([1]; 600 μg/kg priming then 1000 μg/kg vs 1000 μg/kg without priming, SC): 50%
- CRS Grade 1 (number of patients) [1, 2]: 11
- CRS Grade 2 (number of patients) [1, 2]: 9
- CRS Mean duration [1, 2]: 2 days
- Patients with CRS (number) [1, 2]: 20
- patients with CRS (percent) [1, 2]: (100%)
- CRS Grade 1 (number of patients) ([1]; 1000 μg/kg Q1W SC, N = 6): 5
- CRS Grade 2 (number of patients) ([1]; 1000 μg/kg Q1W SC, N = 6): 1
- CRS Mean duration ([1]; 1000 μg/kg Q1W SC, N = 6): 4 days
- Patients with CRS (number) ([1]; 1000 μg/kg Q1W SC, N = 6): 6
- toxicities ([1]; 600 and 1000 μg/kg SC): tolerable and manageable
- patients with dose limiting toxicities (DLTs) ([1]; IV cohorts, 23 patients, febrile neutropenia Grade 3 and electrocardiogram QT prolongation Grade 1): 2 patients
- CRS onset after dosing ([1]; IV cohorts, each patient with CRS): ≤ 2 days
- Cytokine release syndrome (CRS), rank among adverse events ([1]; Part 1 of the study): most common adverse event reported
- impact of dose frequency (Q1W v. Q2W) on the CRS ([1]; Part 1.1, 600 μg/kg priming, 1000 μg/kg SC): no impact
- patients with dose limiting toxicities (DLTs) ([1]; SC cohorts, 30 patients): No patients
- CRS onset after dosing ([1]; SC cohorts, primarily): ≤ 2 days
- Patients with CRS (number) ([1]; all IV cohorts): 11 patients
- patients with maximum Grade 1 CRS (number) ([1]; all IV treated patients): 6
- patients with maximum Grade 1 CRS (percent) ([1]; all IV treated patients): 26.1%
- patients with maximum Grade 2 CRS (number) ([1]; all IV treated patients): 5
- patients with maximum Grade 2 CRS (percent) ([1]; all IV treated patients): 21.7%
- patients with maximum Grade 1 CRS (number) [1, 3]: 18
- patients with maximum Grade 1 CRS (percent) [1, 3]: 60.0%
- patients with maximum Grade 2 CRS (number) [1, 3]: 5
- patients with maximum Grade 2 CRS (percent) [1, 3]: 16.7%
- CRS severity in SC-treated vs IV-treated patients ([1]; despite higher overall dose exposure in SC-treated patients): less severe
- timing of CRS relative to doses ([1]; results of Part 1 of the Study): primarily occurs after the initial dose
- Raji Cell Viability (Raji-luc lymphoma cells; BCMA × CD3 0.00064 nM): 94 ± 3.7 % control
- Raji Cell Viability (Raji-luc lymphoma cells; BCMA × CD3 0.0032 nM): 107 ± 4.5 % control
- Raji Cell Viability (Raji-luc lymphoma cells; BCMA × CD3 0.016 nM): 105.8 ± 10.2 % control
- Raji Cell Viability (Raji-luc lymphoma cells; BCMA × CD3 0.08 nM): 89.3 ± 5.7 % control
- Raji Cell Viability (Raji-luc lymphoma cells; BCMA × CD3 0.4 nM): 88.1 ± 18.4 % control
- Raji Cell Viability (Raji-luc lymphoma cells; BCMA × CD3 2 nM): 71 ± 9.7 % control
- Raji Cell Viability (Raji-luc lymphoma cells; BCMA × CD3 10 nM): 82.1 ± 9.7 % control
- Raji Cell Viability (Raji-luc lymphoma cells; BCMA × CD3 50 nM): 80 ± 13.2 % control
